Measured values taken from publication PMC12170907 (Cell Discovery, 2025).

What was measured:
[1] = molecular target: T1, Superfolder-GFP-tagged M-HBsAg (serotype ayw, genotype D3) (Hepatitis B virus genotype D3, serotype …, UniProt P03138); experiment: ELISA; conditions: both partners purified
T1 construct: source: FreeStyle 293F cells, BacMam virus; purified (ELISA); membranes solubilised with 1% LMNG and 0.1% CHS, supernatant (pull-down); not shown: superfolder GFP, N-terminal, kept

[2] = molecular target: T1, Superfolder-GFP-tagged M-HBsAg …; experiment: pull-down; conditions: one partner purified

Binder	binding result [1]	binding result [2]
3× HA-tagged FabHBC (Fab, V domains shown, also called NAbHBC; parental antibody of VIR-3434; source: FreeStyle 293F, co-transfected heavy and light chain, purified from the supernatant (Ni-NTA, SP HP); not shown: His tag (from the Ni-NTA purification); 3× HA, C-terminal, kept) VH: ELQLVESGGGWVQPGGSQRLSCAASGRIFRSFYMSWVRQAPGKGLEWVATINQDGSEKLYVDSVKGRFTISRDNAKNSLFLQMNNLRVEDTAVYYCAAWSGNSGGMDVWGQGTTVSVSS VL: SYELTQPPSVSVSPGQTVSIPCSGDKLGNKNVCWFQHKPGQSPVLVIYEVKYRPSGIPERFSGSNSGNTATLTISGTQAMDEAAYFCQTWDSTTVVFGGGTRLTVL	binds	–
strep-tagged Fab_(H006) (Fab, V domains shown) VH: QMRLVESGGGVVRPGGSLRLSCAGSGFRFTGYGIHWVRQAPGKGLEWLAYISNDGSKKYHTDSVKGRFTVSRDNAKNTAYLQMNSLRVEETAVYFCAKDGYLSAARGYGMDVWGQGIPVTVSP VL: SYVLTQPPSVSVAPGQTATITCGGNNIGGKSVHWFQQKPGQAPLLIISDDNDRPSGIPERVSGSNSGNTATLTISRVEAGDEADYYCQVWDTTSDQLVFGGGTMLTVL	–	binds
strep-tagged Fab_(GC1102) (Fab, V domains shown, also called strep-HA-tagged NAb_(GC1102); Fab_(GC1102) bait) VH: EVQLVESGGGLVKPGGSLRLSCSASGFSLTKYKMTWVRQAPGKGLEWVSSISSTSRDIDYADSVKGRFTISRDNAKNSLFLQMSSLRVDDTAVYYCTRDGWLWGWDVRSNYYYNALDVWGQGTTVTVSS VL: DIVVTQSPSSLSASVGDRVTITCRASQGIYNSIAWYQQKPGKAPKLLLYSTSTLLSGVPSRFSGSGSGTDYTLTITNLQPEDFATYYCQQYFVTPETFGQGTKLEIK	–	binds
Myc-tagged Fab_(GC1102) (Fab, V domains shown, also called NAb_(GC1102); GC1102 prey) VH: EVQLVESGGGLVKPGGSLRLSCSASGFSLTKYKMTWVRQAPGKGLEWVSSISSTSRDIDYADSVKGRFTISRDNAKNSLFLQMSSLRVDDTAVYYCTRDGWLWGWDVRSNYYYNALDVWGQGTTVTVSS VL: DIVVTQSPSSLSASVGDRVTITCRASQGIYNSIAWYQQKPGKAPKLLLYSTSTLLSGVPSRFSGSGSGTDYTLTITNLQPEDFATYYCQQYFVTPETFGQGTKLEIK	–	binds
Myc-tagged scFv_(H006) (scFv, V domains shown) VH: QMRLVESGGGVVRPGGSLRLSCAGSGFRFTGYGIHWVRQAPGKGLEWLAYISNDGSKKYHTDSVKGRFTVSRDNAKNTAYLQMNSLRVEETAVYFCAKDGYLSAARGYGMDVWGQGIPVTVSP VL: SYVLTQPPSVSVAPGQTATITCGGNNIGGKSVHWFQQKPGQAPLLIISDDNDRPSGIPERVSGSNSGNTATLTISRVEAGDEADYYCQVWDTTSDQLVFGGGTMLTVL	–	binds
